In patent US20250011363A1, “OPTIMIZED SHORTENED PEPTIDE THAT BINDS TO ACETYLCHOLINE RECEPTOR, AND USE THEREOF” (SKINMED CO., LTD., priority 2021, published 2025) one finds Binding affinity (RU) data, which are given here for 28 molecules.

This assay concerns the target acetylcholine receptor. Briefly: SPR, AchR immobilized on CM5 chip, peptide at 10 µM. (In general: In SPR one partner is held on a chip, and binding of the other changes the refractive index at the surface.)

Molecule RWQQR [5mer-141] displayed a Binding affinity (RU) of 50 RU.

As to KGVSK [5mer-137], the Binding affinity (RU) stood at 77 RU.

The molecule KRVTR [5mer-439] displayed a Binding affinity (RU) of 65 RU.

Consider RQYSR [5mer-142], for which the Binding affinity (RU) was found to be 52 RU.

For the molecule KLIRK [5mer-441], the Binding affinity (RU) worked out at 53 RU.

As to RRLLR [5mer-135], the Binding affinity (RU) turned out to be 64 RU.

In turn, RWFTK [5mer-146] displayed a Binding affinity (RU) of 52 RU.

RLFTR [5mer-445] gave a Binding affinity (RU) of 77 RU.

In the case of KVRLR [5mer-442], the Binding affinity (RU) came to 61 RU.

Consider KWRLR [5mer-140], for which the Binding affinity (RU) turned out to be 69 RU.

Molecule RVRSR [5mer-438] registered a Binding affinity (RU) of 76 RU.

RGFTK [5mer-443] displayed a Binding affinity (RU) of 80 RU.

As for KGQQR [5mer-143], the Binding affinity (RU) came to 64 RU.

Take RVFYK [5mer-436]: the Binding affinity (RU) turned out to be 60 RU.

Molecule RRYQK [5mer-147] registered a Binding affinity (RU) of 66 RU.

For RRIYK [5mer-136], the Binding affinity (RU) was 75 RU.

On to KQQYR [5mer-444], for which the Binding affinity (RU) worked out at 65 RU.

On to RQRCR [5mer-138], for which the Binding affinity (RU) is 71 RU.

RVRLR [5mer-437] yielded a Binding affinity (RU) of 50 RU.

As for RLQYK [5mer-139], the Binding affinity (RU) stood at 73 RU.

RQVTK [5mer-440] registered a Binding affinity (RU) of 57 RU.

In the case of KRFSK [5mer-144], the Binding affinity (RU) amounted to 58 RU.

On to KGYYK [5mer-447], for which the Binding affinity (RU) was determined as 76 RU.

The molecule RSQTK [5mer-148] returned a Binding affinity (RU) of 50 RU.

For KLRQR [5mer-435], the Binding affinity (RU) worked out at 69 RU.

The molecule RGLQK [5mer-446] came in with a Binding affinity (RU) of 53 RU.

Molecule RSFSK [5mer-145] returned a Binding affinity (RU) of 62 RU.

RQIRK [5mer-448]: the Binding affinity (RU) was 74 RU.
